The test deals with human c-Met on cells (MKN-45, A549, HPAF, BxPC3) (human) (UniProt P08581). The experiment in a line: cell-based or functional assay.
Chain of human c-Met on cells (MKN-45, A549, HPAF, BxPC3) (human) (P08581 25-1390): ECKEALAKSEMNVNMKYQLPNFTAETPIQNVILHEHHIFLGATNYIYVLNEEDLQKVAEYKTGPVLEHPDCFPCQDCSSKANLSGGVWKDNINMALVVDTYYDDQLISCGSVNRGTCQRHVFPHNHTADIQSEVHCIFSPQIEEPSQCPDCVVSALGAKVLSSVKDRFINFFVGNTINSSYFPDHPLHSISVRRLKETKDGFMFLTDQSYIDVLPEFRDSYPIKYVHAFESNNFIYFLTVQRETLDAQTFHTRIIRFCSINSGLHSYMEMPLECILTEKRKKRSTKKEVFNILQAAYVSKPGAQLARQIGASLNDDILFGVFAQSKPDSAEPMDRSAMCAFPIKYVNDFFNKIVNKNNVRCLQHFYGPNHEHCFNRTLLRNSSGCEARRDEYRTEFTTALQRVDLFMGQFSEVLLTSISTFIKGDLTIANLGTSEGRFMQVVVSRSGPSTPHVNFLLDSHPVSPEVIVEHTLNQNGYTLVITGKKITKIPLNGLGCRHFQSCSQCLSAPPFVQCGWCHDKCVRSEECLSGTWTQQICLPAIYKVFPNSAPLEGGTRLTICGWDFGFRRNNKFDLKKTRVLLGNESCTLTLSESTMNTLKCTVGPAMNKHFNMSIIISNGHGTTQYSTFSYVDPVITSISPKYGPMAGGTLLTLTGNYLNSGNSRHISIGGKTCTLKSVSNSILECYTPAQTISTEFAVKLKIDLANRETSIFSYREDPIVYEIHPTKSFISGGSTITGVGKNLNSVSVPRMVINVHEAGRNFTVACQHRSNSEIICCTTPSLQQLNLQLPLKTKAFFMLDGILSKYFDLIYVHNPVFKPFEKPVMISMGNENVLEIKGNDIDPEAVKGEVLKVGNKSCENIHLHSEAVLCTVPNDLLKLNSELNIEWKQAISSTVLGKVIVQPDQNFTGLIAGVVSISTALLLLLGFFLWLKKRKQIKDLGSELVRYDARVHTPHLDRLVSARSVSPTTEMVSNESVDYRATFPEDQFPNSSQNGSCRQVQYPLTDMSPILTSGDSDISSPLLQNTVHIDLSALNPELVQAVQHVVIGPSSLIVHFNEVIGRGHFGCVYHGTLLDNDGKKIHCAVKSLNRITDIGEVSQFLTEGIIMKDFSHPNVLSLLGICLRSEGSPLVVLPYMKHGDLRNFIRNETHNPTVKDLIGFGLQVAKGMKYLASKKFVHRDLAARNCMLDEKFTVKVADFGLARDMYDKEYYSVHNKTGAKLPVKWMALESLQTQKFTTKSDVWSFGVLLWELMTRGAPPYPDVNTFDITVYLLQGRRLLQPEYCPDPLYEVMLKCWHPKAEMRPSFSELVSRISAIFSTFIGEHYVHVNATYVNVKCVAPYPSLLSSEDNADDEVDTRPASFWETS

On to murine 5D5 antibody, for which the down-regulation of total c-Met on the surface of MKN-45 cells was 50 to 60%.

The record behind these values is patent US20170349667A1.
